{"source": "patent US20230220104A1", "about": "(BRIGHTPATH BIOTHERAPEUTICS, published 2023)", "binders": {"B1": {"name": "002_6_h1 (antibody, V domains shown)", "VH": "QVQLVQSGAEVKKPGASVKVSCKASGYTFTDSNMDWVRQAPGQRLEWMGDINPNNGGTIYNQKFKGRVTITRDTSASTAYMELSSLRSEDTAVYYCARTNWDYAMDYWGQGTLVTVSS", "VL": "DIQMTQSPSSLSASVGDRVTITCKASQDINSQLSWYQQKPGKAPKLLIYRANRLIDGVPSRFSGSGSGTDFTLTISSLQPEDFATYYCQQYDVFPRTFGQGTKLEIK", "notes": "Humanized antibody of 002_6_c; also called humanized antibody 002_6_h1"}, "B2": {"name": "002_6_h6 (antibody, V domains shown)", "VH": "B1 VH with L4M, V5K, Q6E, R44G, I70M, R72I, A76T, A79V", "VL": "B1 VL with M4V, S10F, L46T, P80Y, F83M, Q89L, Q100G, L104V", "notes": "Humanized antibody of 002_6_c; also called humanized antibody 002_6_h6"}, "B3": {"name": "002_6_h3 (antibody, V domains shown)", "VH": "QVQLLQSAAEVRKPGASVKVSCKASGYTFTDSNMDWVRQAPGQGLEWMGDINPNNGGTIYNQKFKGRVTMTTDTSRRTAYMELRSLRSDDTAVYYCARTNWDYAMDYWGQGTTVTVSS", "VL": "B1 VL with S10F, D70E, Q100G", "notes": "Humanized antibody of 002_6_c; also called humanized antibody 002_6_h3"}, "B4": {"name": "002_6_h2 (antibody, V domains shown)", "VH": "B1 VH with L4M, V5K, R72I", "VL": "B1 VL with L11M, L46T, P80Y, F83M, Q89L"}, "B5": {"name": "002_6_h5 (antibody, V domains shown)", "VH": "B1 VH with V5Q, Q6E, R44G, I70M, A76T, A79V", "VL": "B1 VL with M4V, S10F, D70E, Q100G, L104V", "notes": "Humanized antibody of 002_6_c; also called humanized antibody 002_6_h5"}, "B6": {"name": "008_h4 antibody (antibody, V domains shown)", "VH": "QVQLVQSGAEVKKPGASVKVSCKASGYTFTSYWMHWVRQRPGQGLEWMGEINPSNGRTNYNEKFKNRATITADKSSSTAYMELSSLRSEDTAVYYCARRGTSGNYFDYWGQGTLVTVSS", "VL": "DIQMTQSPSSLSASVGDRVTITCKASQDINTYLSWFQQKPGKAPKTLIYRANRLVDGVPSRFSGSGYGTDFTLTISSLQYEDMATYYCLQYDEFPYTFGGGTKVEIK", "notes": "Humanized antibody based on 008_m"}, "B7": {"name": "003_m antibody (antibody, V domains shown)", "VH": "DVKLVESGGGLVQPGGSRKLSCAASGFTFSSFGMHWVRQAPEKGLEWVAYISSGSRTIYYADTVRGRFTISRDNSKNTLFLQLTSLRSEDTAIYYCASDFGSSSPNYFDYWGQGTTVTVSS", "VL": "not shown"}, "B8": {"name": "004_h3 antibody (antibody, V domains shown)", "VH": "EVQLVQSGAEVKKPGESLKISCKASGYTFTGYWMNWLRQMPDKGLEWMGRIDPYDSETHYSQKFKDKVTITAHKSSSTAYLQWSSLKASDSAIYYCARSSPITTAPFDYWGQGTTVTVSS", "VL": "DIVMTQSPASLAVSLGERATISCRASESVDYYGFSFMNWYQQKPGQPPKLLIYAASTQGSGVPDRFSGSGSGTDFTLTISSLQAEDVAVYYCQQSKEVPYTFGGGTKVEIK", "notes": "Humanized antibody based on 004_m"}, "B9": {"name": "002_1_c antibody (antibody, V domains shown)", "VH": "QVQMKQSGPELVKPGASVKIPCKASGYTFTDCNMDWVKQSHGESLEWIGDINPNNGGTIYNQKFKGKVTLTIDKSSSTAYMELRSLTSEDTAVYYCARTNWDYAMDYWGQGTSVTVSS", "VL": "DIQMTQSPSSMYASLGERVTITCKASQDINSNLSWFQQKPGKSPKTLIYRANRLIDGVPSRFSGSGSGQDYSLTISSLEYEDMGIYYCLQYDVFPRTFGGGTKLELK"}, "B10": {"name": "007_m antibody (antibody, V domains shown)", "VH": "QVQLQQPGAELVRPGASVKLSCKASGYTFTSYWMNWVKQRPEQGLEWIGKIDPYDSETHYNQKFKDKAILTVDKSSSTAFMQLSSLTSEDSAVYYCARIRYGTFDYWGQGTTLTVSS", "VL": "B9 VL with Q3V, S31N, N32Y, R53I, I55V, R61G, V93E, R96Y, K103R, L106I"}, "B11": {"name": "006_m antibody (antibody, V domains shown)", "VH": "QVQLQQPGAELVKPGVSVKLSCKASGYTFTSYWMHWVKQRPGQGPEWIGEINPSNARTNYNENFKSKATLTVDKSSTTAYMHFSRLTSEDSAVYYCARRGTSGNYFDFWGQGTTVTVSS", "VL": "B9 VL with S31T, N32Y, I55V, Q69E, V93E, R96Y, K103R, L106I"}, "B12": {"name": "002_5_c antibody (antibody, V domains shown)", "VH": "B9 VH with C32S", "VL": "B9 VL with N32D"}, "B13": {"name": "002_6_c antibody (antibody, V domains shown)", "VH": "B9 VH with C32S", "VL": "B9 VL with N32Q"}, "B14": {"name": "002_4_c antibody (antibody, V domains shown)", "VH": "B9 VH with C32S", "VL": "B9 VL"}, "B15": {"name": "008_m antibody (antibody, V domains shown)", "VH": "QVQLKQSGAELVKPGASVKLSCKASGYTFTSYWMHWVKQRPGQGPEWIGEINPSNGRTNYNEKFKNRATLTVDKSSSTAYMQLSRLTSEDSAVYYCARRGTSGNYFDYWGQGTTLTVSS", "VL": "B9 VL with S31T, N32Y, I55V, Q69E, V93E, R96Y, K103R, L106I"}, "B16": {"name": "002_2_c antibody (antibody, V domains shown)", "VH": "B9 VH", "VL": "B9 VL with N32D"}, "B17": {"name": "002_3_c antibody (antibody, V domains shown)", "VH": "B9 VH", "VL": "B9 VL with N32Q"}, "B18": {"name": "004_m antibody (antibody, V domains shown)", "VH": "QVQLQQPGAELVRPGTSVKLSCKASGYTFTGYWMNWLKQRPDQGLEWIGRIDPYDSETHYSQKFKDKAILTVHKSSSTAYIQLNSLTSEDSAVYYCTRSSPITTAPFDYWGRGTTLTVSS", "VL": "not shown"}}, "key": {"[1]": {"target": "T1, human CD73 on cells (H322, MDA-MB-231, HT-144, T cells, CD73-transfected HEK293T) (human, UniProt P21589 27-549)", "T1 construct": "whole, on cells; One molecule for endogenous and transfected cell-surface human CD73; the cell line is named under assay or readout; also called CD73 antigen; human CD73 antigen", "T1 sequence (looked up)": "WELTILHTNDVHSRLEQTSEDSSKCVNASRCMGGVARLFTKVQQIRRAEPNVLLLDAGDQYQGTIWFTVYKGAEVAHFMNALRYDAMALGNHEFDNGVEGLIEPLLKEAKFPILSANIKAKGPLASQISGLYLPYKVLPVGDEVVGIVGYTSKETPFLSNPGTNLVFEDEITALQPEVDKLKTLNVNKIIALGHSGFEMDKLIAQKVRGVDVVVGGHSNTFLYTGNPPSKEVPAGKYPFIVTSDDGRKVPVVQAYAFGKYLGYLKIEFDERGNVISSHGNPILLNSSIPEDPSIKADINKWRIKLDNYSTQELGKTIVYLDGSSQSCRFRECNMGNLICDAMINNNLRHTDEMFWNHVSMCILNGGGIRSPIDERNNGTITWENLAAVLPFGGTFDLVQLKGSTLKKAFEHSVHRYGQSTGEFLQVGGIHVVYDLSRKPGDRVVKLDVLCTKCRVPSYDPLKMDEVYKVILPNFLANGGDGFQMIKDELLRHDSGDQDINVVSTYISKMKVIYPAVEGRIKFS", "assay": "flow cytometry on H322 cells (endogenous CD73), PE channel", "description": "Analysis of the binding activity of each of the obtained humanized antibodies 002_6_h1 to 002_6_h8 to target expressing cells was carried out by FACS analysis using endogeneously CD73 expressing cells (human lung cancer cell line H322)."}, "[2]": {"target": "T1, human CD73 on cells (H322, MDA-MB-231, …)", "assay": "cell-based or functional assay"}, "[3]": {"target": "T1, human CD73 on cells (H322, MDA-MB-231, …)", "assay": "flow cytometry, HEK293T cells forcibly expressing human CD73 (293T_hCD73) against untransfected 293T cells, APC channel"}, "[4]": {"target": "T1, human CD73 on cells (H322, MDA-MB-231, …)", "assay": "cell-based or functional assay", "remark": "listed apart in the source"}, "[5]": {"target": "T1, human CD73 on cells (H322, MDA-MB-231, …)", "assay": "cell-based or functional assay", "remark": "listed apart in the source"}, "[6]": {"target": "T1, human CD73 on cells (H322, MDA-MB-231, …)", "assay": "cell-based or functional assay", "remark": "listed apart in the source"}, "[7]": {"target": "T1, human CD73 on cells (H322, MDA-MB-231, …)", "assay": "cell-based or functional assay", "remark": "listed apart in the source"}}, "note": "Where a chain is given by its changes, count along the chain named. Where two headings read alike, the source gives them in different places."}
{"binder": "B1", "values": [{"measurement": "binding result", "setting": "[1]", "value": "binds"}]}
{"binder": "B2", "values": [{"measurement": "binding result", "setting": "[1]", "value": "binds"}]}
{"binder": "B3", "values": [{"measurement": "binding result", "setting": "[1]", "value": "binds"}]}
{"binder": "B4", "values": [{"measurement": "IC50 of AMP degradation suppressive function, H322 cells", "setting": "[2]", "value": 0.236, "unit": "µg/mL"}]}
{"binder": "B5", "values": [{"measurement": "binding result", "setting": "[1]", "value": "binds"}]}
{"binder": "B6", "values": [{"measurement": "binding result", "setting": "[3]", "value": "binds"}]}
{"binder": "B7", "values": [{"measurement": "IC50 of AMP degradation suppressive function (cell line of Table 7 not stated; H322 in FIG. 12)", "setting": "[4]", "value": 0.088, "unit": "µg/mL"}]}
{"binder": "B8", "values": [{"measurement": "binding result", "setting": "[3]", "value": "binds"}]}
{"binder": "B9", "values": [{"measurement": "IC50 of AMP degradation suppressive function, H322 cells", "setting": "[5]", "value": 0.042, "unit": "µg/mL"}]}
{"binder": "B10", "values": [{"measurement": "IC50 of AMP degradation suppressive function (cell line of Table 7 not stated; H322 in FIG. 12)", "setting": "[4]", "value": 0.012, "unit": "µg/mL"}, {"measurement": "IC50 of AMP degradation suppressive function, MDA-MB-231 cells", "setting": "[6]", "value": 0.041, "unit": "µg/mL"}]}
{"binder": "B11", "values": [{"measurement": "IC50 of AMP degradation suppressive function (cell line of Table 7 not stated; H322 in FIG. 12)", "setting": "[4]", "value": 0.008, "unit": "µg/mL"}, {"measurement": "IC50 of AMP degradation suppressive function, MDA-MB-231 cells", "setting": "[6]", "value": 0.032, "unit": "µg/mL"}]}
{"binder": "B12", "values": [{"measurement": "IC50 of AMP degradation suppressive function, H322 cells", "setting": "[5]", "value": 0.066, "unit": "µg/mL"}]}
{"binder": "B13", "values": [{"measurement": "IC50 of AMP degradation suppressive function, H322 cells", "setting": "[5]", "value": 0.042, "unit": "µg/mL"}, {"measurement": "IC50 of AMP degradation suppressive function, H322 cells", "setting": "[2]", "value": 0.04, "unit": "µg/mL"}, {"measurement": "IC50 of AMP degradation suppressive function, MDA-MB-231 cells", "setting": "[7]", "value": 0.023, "unit": "µg/mL"}, {"measurement": "IC50 of AMP degradation suppressive function, MDA-MB-231 cells", "setting": "[6]", "value": 0.04, "unit": "µg/mL"}]}
{"binder": "B14", "values": [{"measurement": "IC50 of AMP degradation suppressive function, H322 cells", "setting": "[5]", "value": 0.038, "unit": "µg/mL"}]}
{"binder": "B15", "values": [{"measurement": "IC50 of AMP degradation suppressive function (cell line of Table 7 not stated; H322 in FIG. 12)", "setting": "[4]", "value": 0.006, "unit": "µg/mL"}, {"measurement": "IC50 of AMP degradation suppressive function, MDA-MB-231 cells", "setting": "[6]", "value": 0.031, "unit": "µg/mL"}]}
{"binder": "B16", "values": [{"measurement": "IC50 of AMP degradation suppressive function, H322 cells", "setting": "[5]", "value": 0.077, "unit": "µg/mL"}]}
{"binder": "B17", "values": [{"measurement": "IC50 of AMP degradation suppressive function, H322 cells", "setting": "[5]", "value": 0.039, "unit": "µg/mL"}]}
{"binder": "B18", "values": [{"measurement": "IC50 of AMP degradation suppressive function (cell line of Table 7 not stated; H322 in FIG. 12)", "setting": "[4]", "value": 0.013, "unit": "µg/mL"}, {"measurement": "IC50 of AMP degradation suppressive function, MDA-MB-231 cells", "setting": "[6]", "value": 0.032, "unit": "µg/mL"}]}
